# In patent US20120277180A1, “Cofactors and Methods for Use for Individuals” (VITAPATH GENETICS, INC, priority 2009, published 2012):
# Experiments:
# [1] = molecular target: T1, human MTHFR (Homo sapiens, UniProt P42898, A222V); test: In vivo yeast complementation growth assay: MTHFR alleles in fol3 met13 haploid yeast, growth without methionine with titrated folinic acid; type: cell-based; parameters: expressed in transfected cells; host or cells: Saccharomyces cerevisiae fol3Δ::KanMX met13Δ::KanMX (S288c background), GAL1 promoter; settings: 50 p g/ml folate supplementation
# [2] = molecular target: T1, human MTHFR; test: Cell-free MTHFR enzyme activity assay in crude yeast extract; type: biochemical; parameters: expressed in transfected cells; settings: cells grown at 50 ug/ml folinic acid
substance,measurement,setting,value
"A222V: common functionally impaired human MTHFR variant, catalytic domain substitution A222V",Reduction in growth rate,[1],50%
same,Drop in enzyme activity in cell-free assays,[2],50%
